The target in the test is cp283Δ8, cp283 with an eight-amino acid deletion in the loop connecting the native termini (Candida antarctica). Put plainly: SEC. For orientation: SEC sorts molecules by how far they enter the pores of the column.

In general, stoichiometry N refers to a count of units in the complex or per binding partner. Turning to “cp283Δ8, cp283 with an eight-amino acid deletion in the loop connecting the native termini (enzyme)”, the stoichiometry N is 3.

The record behind these values is PMC2753740.
